{"source": "patent US6436901B1", "about": "“Pharmaceutical compositions” (UCP Gen-Pharma AG, priority 1994, dated 2002)", "assay": "RP-HPLC of hirudin in water (FIG. 1)", "type": "physicochemical", "experimental": "RP-HPLC method: A LiChroCART 125-4 column is used (Merck LiChrospher 100 RP-18 5 μm). Solvent A is 0.5% ammoniumacetate in acetonitrile/water (10:90), (v:v); solvent B is 0.5% ammoniumacetate in acetonitrile/water (25:75). The elution is performed at 45° C. using a flow rate of 0.5 ml/min. The binary elution is a linear gradient starting at time zero with 23% solvent B and reaching 46% solvent B after 24 minutes. After 2 min at 70% solvent B the column is equilibrated for 7 min at 23% solvent B.\nA typical chromatogram of recombinant hirudin HV1 (CGP 39393) in water using the RP-HPLC (1 mg/ml hirudin) method is shown in FIG. 1.\nIn FIG. 1 the relative area of the main peak is 95.15%. […] The changes which occur can be accelerated by using temperature stress experiments i.e. by storage at elevated temperatures."}
{"substance": "hirudin", "values": [{"measurement": "relative area of the main peak", "setting": "in water, 1 mg/ml hirudin, typical chromatogram FIG. 1, no storage stress", "value": 95.15, "unit": "%"}, {"measurement": "stability on storage in water", "setting": "storage in water at room temperature", "value": "increase of by products with time"}]}
